Ten substances from paper PMC9388496 can be followed below.

Experiment [1] addresses FcRn coupled to the resin of the affinity chromatography column (UniProt P55899). Description: analytical FcRn affinity chromatography; protein (1 mg/ml, alone or preincubated with cognate Ag) injected on a column with FcRn-coupled resin at pH 5.5 (20 mM MES, 140 mM NaCl), eluted by a linear pH gradient to pH 8.8 (20 mM Tris-HCl, 140 mM NaCl) over 110 min.
Experiment [2] concerns the target VEGF-165 (VEGF-A165, Sino Biological) (UniProt P15692). Description: SPR (Biacore T200). Conditions: pH 5.5 vs 7.4, 0.15 M NaCl, 67 mM phosphate, the same buffer adjusted to pH 7.4 with 1 M NaOH. (Surface plasmon resonance follows binding to a sensor surface in real time, without labels.)
The next experiment deals with aflibercept (Eylea) (UniProt P17948). Nature of the experiment: SPR; Biacore T200; IgG1, Fc or ABTs immobilised (~400 RU) on CM5 by amine coupling; monomeric His-tagged FcRn (2000-1.95 nM) injected at pH 5.5 (67 mM phosphate, 0.15 M NaCl, 0.005% Tween20), 50 μl/min; 1:1 Langmuir binding model.
The target of experiment [3] is IgG1-derived Fc fragment (human). The description is as above.
Another experiment has as its target etanercept (Enbrel) (UniProt P20333). The experiment is described as above.
Experiment [4] addresses infliximab (Remicade) (human). The description is as above.
In experiment [5] the target is adalimumab (Humira) (human). Described as above.
The target of experiment [6] is anti-NIP IgG1 (human | mouse). The experiment is described as above.
The target of experiment [7] is bevacizumab (Avastin) (human). The description is as above.
In experiment [8] the target is Truncated monomeric His-tagged FcRn (UniProt P55899).
Experiment [9] shares this target. The source holds these as a separate data set.

Sequence of VEGF-165 (VEGF-A165, Sino Biological) (P15692 whole entry): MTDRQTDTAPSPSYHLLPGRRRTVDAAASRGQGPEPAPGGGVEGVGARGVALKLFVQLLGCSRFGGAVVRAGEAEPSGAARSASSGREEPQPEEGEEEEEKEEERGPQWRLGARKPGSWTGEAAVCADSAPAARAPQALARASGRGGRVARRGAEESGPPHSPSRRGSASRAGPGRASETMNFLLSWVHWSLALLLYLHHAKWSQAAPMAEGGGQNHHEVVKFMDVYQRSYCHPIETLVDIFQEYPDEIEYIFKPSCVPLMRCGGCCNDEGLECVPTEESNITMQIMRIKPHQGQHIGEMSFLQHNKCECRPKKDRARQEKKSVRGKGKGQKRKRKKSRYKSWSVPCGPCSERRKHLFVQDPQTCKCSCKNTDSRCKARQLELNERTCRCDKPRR
Sequence of aflibercept (Eylea) (from UniProt P17948 129-229; P35968 1-764) (Fc fusion) (P17948 other isoform, or with tags, fused parts or gaps): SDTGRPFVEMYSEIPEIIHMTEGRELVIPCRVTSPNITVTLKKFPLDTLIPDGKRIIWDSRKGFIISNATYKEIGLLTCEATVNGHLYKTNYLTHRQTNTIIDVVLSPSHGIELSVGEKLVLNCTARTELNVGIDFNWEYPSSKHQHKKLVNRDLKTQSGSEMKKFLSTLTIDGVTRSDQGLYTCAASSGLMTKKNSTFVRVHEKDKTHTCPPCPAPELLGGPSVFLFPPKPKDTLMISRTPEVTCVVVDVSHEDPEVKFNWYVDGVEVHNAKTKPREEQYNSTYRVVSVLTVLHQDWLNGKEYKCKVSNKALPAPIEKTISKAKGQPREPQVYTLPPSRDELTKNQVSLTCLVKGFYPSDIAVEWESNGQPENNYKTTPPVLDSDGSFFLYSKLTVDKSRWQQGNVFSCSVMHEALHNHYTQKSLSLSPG

In experiment [1], “aflibercept (Eylea) (from UniProt P17948 129-229; P35968 1-764) (Fc fusion)” came in with an elution peak pH of 7.01 pH.

Consider “Aflibercept (Eylea), VEGFR1 D2-VEGFR2 D3-IgG1 Fc fusion”, for which the “on-rate (sensorgram comparison), fold change pH 5.5 over pH 7.4” value in experiment [2] was “acidic pH enhanced the on-rate more than 5-fold”.

Consider Bevacizumab (Avastin), for which the “on-rate (sensorgram comparison), fold change pH 5.5 over pH 7.4” value in [2] is recorded as “acidic pH enhanced the on-rate more than 5-fold”.

For the substance “Truncated monomeric His-tagged FcRn (from UniProt P55899 24-365) (receptor)”, the Kd in the experiment with aflibercept (Eylea) stood at 350 nM; in experiment [3], 230 nM; with etanercept (Enbrel) it was 380 nM; in experiment [4], 310 nM; in experiment [5], 430 nM; in experiment [6] it was 330 nM. In experiment [7], this substance came in with an equilibrium dissociation constant (Kd) of 380 nM. Also, the koff with aflibercept (Eylea) was found to be 0.001 s⁻¹; in the experiment with etanercept (Enbrel) it was 0.001 s⁻¹; in experiment [4] it was 0.002 s⁻¹; in [5] it was 0.001 s⁻¹; in experiment [7], 0.001 s⁻¹. The kon in the experiment with aflibercept (Eylea) is 30000 M⁻¹ s⁻¹; with etanercept (Enbrel), 31000 M⁻¹ s⁻¹; in experiment [4] it was 35000 M⁻¹ s⁻¹; in experiment [5], 42000 M⁻¹ s⁻¹; in experiment [7] it was 32000 M⁻¹ s⁻¹.

In [1], “etanercept (Enbrel) (from UniProt P20333 23-257) (Fc fusion)” came in with an elution peak pH of 6.88 pH.

Substance adalimumab (Humira) (antibody) registered an elution peak pH in experiment [1] of 7.21 pH.

“IgG1-derived Fc fragment (domain or fragment)” returned an elution peak pH in [1] of 7.13 pH. In [8], this substance returned a reduction of the recycling of 400 nM anti-NIP IgG1 (m4) by titrated Fc fragment (6400-1 nM) in HERA, HMEC-1-FcRn cells preloaded with IVIg, uptake at pH 6.0 of 32.9 nM.

Take bevacizumab (Avastin) (antibody): in experiment [1], the elution peak pH is 7.2 pH.

infliximab (Remicade) (antibody) displayed an elution peak pH in experiment [1] of 7.15 pH.

In turn, “anti-NIP IgG1 Fc-engineered variant M252Y/S254T/T256E/H433K/N434F (antibody)” came in with a cellular uptake in HERA (HMEC-1-FcRn cells) after 2 h incubation, relative to non-engineered anti-NIP IgG1 in [9] of 15 fold.

As usually defined, the Kd is the concentration at which binding is half-saturated. Read a high Kd as a looser complex. As usually defined, the koff is the first-order rate constant of dissociation. Read a low koff as a long-lived complex. As usually defined, the kon is the second-order rate constant of association. Low readings indicate slower complex formation, high ones faster complex formation.
